Reference: patent US20230218739A1 (SICHUAN CLOVER BIOPHARMACEUTICALS, published 2023)

Biological target: Rabies G-Trimer (CTN-1 Strain) (ectodomain of rabies CTN-1 strain G protein fused in frame to Trimer-Tag) (Rabies virus CTN-1 strain)

B1: NGFR-Fc (nerve growth factor receptor NGFR (p75) fused to Fc) (Fc fusion)
chain: KEACPTGLYTHSGECCKACNLGEGVAQPCGANQTVCEPCLDSVTFSDVVSATEPCKPCTECVGLQSMSAPCVEADDAVCRCAYGYYQDETTGRCEACRVCEAGSGLVFSCQDKQNTVCEECPDGTYSDEANHVDPCLPCTVCEDTERQLRECTRWADAECEEIPGRWITRSTPPEGSDSTAPSTQEPEAPPEQDLIASTVAGVVTTVMGSSQPVVTRGTTDN
Q: How did the Kd turn out when B1 was run?
A: The Kd was 2.92 nM.

Q: What about the koff of the same binder?
A: The koff was 2.39e-05 s⁻¹.

Q: And the kon?
A: Its kon is 8170 M⁻¹ s⁻¹.
